Source: patent US20220251174A1 (published 2022)

Target: SARS-CoV-2 Spike S2-hFc (SARS-CoV-2, UniProt P0DTC2 686-1213)
Experiment: Octet BLI; Fab analyte over S2-hFc on AHC sensors; steady-state analysis
Experimental: All label-free interaction analysis was performed on an Octet HTX biolayer interferometry-based detection system (ForteBio/Sartorius, Göttingen, Germany) equipped with various sensor types; AR (amine-reactive), SAX (streptavidin-coated), or AHC (anti-human-Fc capture) sensors. Experiments were conducted at 25° C. in a run buffer of PBS containing 0.05% Tween™-20 and 0.5 mg/mL BSA.
Binding affinity estimates. Different assay formats were used to estimate the binding affinities of Ab/target bimolecular interactions. In one assay format, Fab was titrated as monovalent analyte (typically as a 3-fold series with a top concentration of 3 μM, and at least one concentration in duplicate) over AHC sensors coated with human-Fc-fused targets RBD-hFc, S1-hFc or S2-hFc as ligands (Sino Biological). […] Global affinity estimates were determined using the Kinetics module of Fortebio's Data Analysis HT software version 12.0.1.55. Data were processed by subtracting the responses of a buffer analyte sample and fitting these referenced data globally to a simple 1:1 Langmuir binding model to deduce the KD value from the ratio of the kinetic rate constants (KD=kd/kₐ), where kd and kₐ are the dissociation and association rate constants, respectively. […] All samples were measured on duplicate sensors.

B1: 2-A6 Fab (Fab, V domains shown)
VH: QVTLRESGPALVKPTQTLTLTCTFSGFSLNTRGMSVSWIRQPPGKALEWLALIDWEDDKFYRTSLMTRLTISKDIFKNQVVLTMTNVDPVDTGTYYCARTYSVGVKYFGMDVWGQGTTVTVSS
VL: SSELTQDPAVSVALGQTVRITCQGDSLRNYYASWYRQEPGQAPILLIYGGNYRPSGIPDRFSGSSSGNTASLTITGAQAEDEADYYCNSRDSSGNHVVFGGGTKLTVL
- Kd: 913 nM
